In a protein production outcome set (Wang et al. 2014):

Assay: label from the status in PepcDB records
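Further: failed if final PepcDB status was selected cloned or expressed and not failed if soluble or beyond.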

Row | Sequence | protein production
1 | MLAERGANITGLDISGPMLQQGREKAQATGVDDRVEFMRGDAARLPFPDDHFDTVFAMRFFHLADTPAAFLAEMRRVSKEQVFFDTFNRFSTRSIYNWALPMGSRLYSRWEIDRLLDGAGLELTDANHDWLLPYGFYRKIPNELAASFRSLDTALGGTPLGEKLASVSYWNTHVLEHHHHHH | failed
2 | MTIMTARFASILLGGCLAASLFSGPVFAVGNDNSTMPTCKKGEIYDQKTKKCVKQQSANVSDENRTDYAYSLAKAGRYEEALAMLDTVKDQNSAEVLNYRGYATRKLGRTDEGISYYLQSVKMDPQYAKVREYLGEAYVIKGRLDLAKEQLTTIKAICGTACEEYQDLNAAILNPSKI | failed
3 | NRLLSKYDPQKEAELRTWIEGLTGLSIGPDFQKGLKDGTILCTLMNKLQPGSVPKINRSMQNWHQLENLSNFIKAMVSYGMNPVDLFEANDLFESGNMTQVQVSLLALAGKAKTKGLQSGVDIGVKYSEKQER | not failed
4 | MKISLVTVTFNSAKTLCDTIHSVLSQSYTNIEYIIVDGLSNDETVTLIKEYEPLFQGRLKWISEKDKGLYDAMNKGIRMSTGDIVGIINSDDFYHRGDVLEKVAESFEAGETEAIYGDVRFVNPDNLDRTVRYYSSKRFVPSLFRFGFMPAHPTFFTYRKYFDQFGYYKTNYKIAADYELLVRFLYVHRLKSKYLPLDFMKMRTGGASTASIKSNILLNKEIVRACKENGIWTCYPLLLLKYLVKVFELIFIKKLEHHHHHH | not failed
5 | MGGGPALNRDSSRHARPFISSPVKTLAIIPAFNEAQAIGPVLGDLPDGWVDEVVVVNNASTDATKANARAAGATVVDEPQQGYGAACLRGIAYAETRQPDVVVFLDGDYSDHPEELPRLVEPIAADEADFVVGSRIRGDAEPGALLPQAQVGNRFACSLMARLWGADYTDLGPFRAIRFRDLLALDMQDETFGWTIEMQIRALEAGLRVEEVPVSYRRGIGPSKITGTLSGTVKASAKILWTIGRMAATTHRRAPRLRERVDRARTDAPTPNPGGLEHHHHHH | failed
6 | MTAVSLGPSPARRDALARRIRLLVTATIGYNVVEAVVAITAGTIASSTALIGFGLDSVIEVSSAAAVAWQFSARDPAVREAREKRTLRIIAFSFFALALYVTVDSVRALTGTGEAGHSVPGIVLAGLSLAIMPFLSAAQRKAGREIGSASAVADSKQTLLCTYLSAVLLVGLLVNLLLGWTWADPVAALVISAIAVKEGRDAWQGRGCCAAPTWATPQAGADTDNCDCCS | failed
7 | RLSAREAIALLSDDFDRLPVAEGAYAPDGPLSWQGYDASRARATERTGEDESVVCGRARIDGTPAVLIAFEFGFLGGSLGERTGDRLEAAYTYARAHRLPVVSLVATGGSRMQEGMLALTQLQRVARQSALTRAAGLPQLAVLRDPTTGGGWATLGAGADVVLALPGVQVGFAGSRVRPPDADPAAYTAQAQLAAGSIDAVVRPQELRETVGLWLALLTAPSTEP | failed
8 | MKALNDLNIFVETARQGSFSKAANSMDMTPAAISASIKRLEGQIGFPLFVRSTRSLRLTSEGELFLDKTTQALATLQEGLDQISSARGELSGQLHITAPSDFGRNMLLDWVDEFIDLYPNVSIKLELSDSLTDMYTKPVDIAIRYGEPADSNLVVLALCGSNERILCASPEYVATHPELTSPADLTQHNCLCYMVADSVYNKWTLTRDGEKEQVVVSGNLMSNDSDLPHRLAIKGKGIANKSLMDISRDLIEGRLVRVLPEWDSGPVPLYMVCADRRLLTPTIRTFRDFIQQKCCQQRANVLATFCH | failed
9 | MCVRLENENFKAELSESGAELTSLKSKNTDNEYIWTANSSYWGRHAPILFPIVGKVKDNKYRIADKVYNLSQHGFARDMEFEVEDNASDRAVFKLVWNDETLEKYPYKFELRVIYVLKDSTVDVTYNVKNVDDKDIFFSIGAHPGFNCPVIGKQSENDELQFEDYYIEFEKRETTGVVKLNSSNLLSRNTSPFLYASNILNLSEKLFKQGALILKDLDSTSISLKNDKNTTSVTVSFEGFPYVGLWSKPEGAPFVCIEPWFGHADYEDFNGDFREKEDGLKLEVGKEFECTYSITIGELEHHHHHH | not failed
10 | MSAAPGLLHQELSCPLCLQLFDAPVTAECGHSFCRACLGRVAGEPAADGTVLCPCCQAPTRPQALSTNLQLARLVEGLAQVPQGHCEEHLDPLSIYCEQDRALVCGVCASLGSHRGHRLLPAAEAHARLKTQLPQQKLQLQEACMRKEKSVAVLEHQLVEVEETVRQFRGAVGEQLGKMRVFLAALEGSLDCEAERVRGEAGVALRRELGSLNSYLEQLRQMEKVLEEVADKPQTEFLMKYCLVTSRLQKILAESPPPARLDIQLPIISDDFKFQVWRKMFRALMPALEELTFDPSSAHPSLVVSSSGRRVECSEQKAPPAGEDPRQFDKAVAVVAHQQLSEGEHYWEVDVGDKPRWALGVIAAEAPRRGRLHAVPSQGLWLLGLREGKILEAHVEAKEPRALRSPERRPTRIGLYLSFGDGVLSFYDASDADALVPLFAFHERLPRPVYPFFDVCWHDKGKNAQPLLLVGPEGAEA | failed
11 | MEDAAAPGRTEGVLERQGAPPAAGQGGALVELTPTPGGLALVSPYHTHRAGDPLDLVALAEQVQKADEFIRANATNKLTVIAEQIQHLQEQARKVLEDAHRDANLHHVACNIVKKPGNIYYLYKRESGQQYFSIISPKEWGTSCPHDFLGAYKLQHDLSWTPYEDIEKQDAKISMMDMLLSQSVALPPCTEPNFQGLTH | failed
12 | MERYTKKNERFKAEEGKGSKKSRTFLTERERRALFNDRFFDLKNLIPNPTKGGEASIVQDGIVYINELQRLVSELKYLVEKKKCGARHNNIEVDNKNTIYGTSKIEHPFSKNKNTFNCLIRTLRFVHHF | failed
13 | MLNIGVKDVKTNLLTPVVTLSIFGSTGAVLPALAIPVITPTQQDIQPALPEPSPLPPTSPPVLEPPPSPPSPAPESENVLIPVQKIIVEGSTLFGPAEFDPILKPLEGQQVTLAELQRATDAITKLYLEGGYLTSRAVLNEQVVRDGVIRIQVLEGRLEDIRIEGNKGIIQRYIRSRIALGAGVPLNGNRLEEQLRLLRTDPLFANLSASLRPGTTPQESVLVVRVVPARWLNAAFGLDNHTSPAIAPNRATAFLGYNNLSGRGDSVYGSYAIGNNLGTFDWGASNTVEFGYSLPLNAMNGTLTIRTLQADSEITRPPALAAFNIRSESSIYQASFRQPVIRTIREELAFGIGFLMQSAQTFVLGVPAPISPGANASGYSASRVLEFTQEYTRRDTQGAWVFRSQFNFGLPIFGATENPSPIPDGNFFSWLGQGQRLQLLWADNLLILRTDVQLTPNSLLPFHQFVIGGPLSVRGYSTNALSGDNGLRFSGEARFPVLRTANRRPIISIGPLFDLGVVWNHSRNPAGAVPNNVIAGLGMGLLVQPTPNLDLQLQYAAPLIDLPGQTRSLQSDGIYFSLTVRP | failed
14 | MDDEGLPRFAGVVYDQEEGIDALVGDFVEGLLARKLRVGGLLQGREPDAEGVTRTVVRVIGKARRIVISQNLGRHSTACSIDSAAIAEAAVALRQALEERPALIVGNRFGHLELEGAGMSEEMLDILASGTPFLIPVARRFEEGWRRFTGDMGDLLDPRPAALTAWFEALAPVTALEHHHHHH | failed
15 | MKDNYDAPESMLTGRVMYNGEALQLRGNEAVQLQLYQHGYAKHDPINVYVNQDGMYSANLFDGEYQMITKSGNGPWTSEGRDTINVTVAGNTVQDVEVTPYYLVRDAQMTLEGNKVNASFKVEKVAGGGIDRVFFMLSTTQFVNDAEHNVDRYDETDNLDAYDETGKLYTFATRDYTDNSMFQTALKRGTLFGRICIWPKGSDQGIYSKVIRLK | not failed
16 | MNHDIDIKKVRLNCFRQSKVPGEFMLQMRIPGGIVDAKYLSQIQEIAETWGNGTFHMGMRQTFNIPGIKYENIQAVNKFIENYLQEVEVDRCNCDMKVDENGYPTIGARNVMACIGNSHCIKANVDTKDMANKIEKLVFPSHYHIKVSVAGCPNDCAKGHFQDFGVIGQARMEYHEERCIGCGACVRACEHHATRVLSLNDKGLVDKDPCCCVGCGECVLACPASAWTRKPEKFYRIVIGGRTGKQTPRMGKTFINFATEEVVLGIFANWQKFSAWALDYKPEYLHGGHLIDRAGYHKFKEIILDGVELNPEALVADNIFWAETEYRSNFNVKPIKMHKTIESNRPLRLEHHHHHH | failed
17 | MDNDKYLKGTTTVGVVCTDGIVLASEQRATMGHFIASKTAKKVYQIDDLVGMTTAGSVGDAQQLVRLVSVESQLYKMRRNESMTIKGIATLMSNFLNANRYYPMMVQLLIGGVDKNGPAIYSLDPMGGSIEETRISATGSGSPMAYGVLEDQYREDIAVKEGLDLAIRAIHNATKRDSASGENIDVVVITKEAFKRLDPEEVKSRRALLN | failed
18 | IEDCWLAYATAGTLNEDKSNAILIPTWYSGTHQTWFQQYIGTDHALDPSKYFIISINQIGNGLSVSPANTADDSISMSKFPNVRIGDDVVAQDRLLRQEFGITELFAVVGGSMGAQQTYEWIVRFPDQVHRAAPIAGTAKNTPHDFIFTQTLNETVEADPGFNGGEYSSHEEVADGLRRQSHLWAAMGFSTEFWKQEAWRRLGLESKESVLADFLDPLFMSMDPNTLLNNAWKWQHGDVSRHTGGDLAAALGRVKAKTFVMPISEDMFFPVRDCAAEQALIPGSELRVIEDIAGHLGLFNVSENYIPQIDKNLKE | failed
19 | DQPLAVAGDELAIADQTIDALSAQVEKLRHQQDLSLKQAELLTELSRANLSDIDEIQGVIQKNLDQARALFGCERLVFYYHPRYQPEAMVVQALDLTTQGLIDSKDPHPWGQEDMPSQIVAINDTSGASISNPHRQWLEQHQVKASLTVPLHRDNYPLGLLMAHHCQRPHQWEMRERQFLQQLTEELQTTLDRANLIQERNESAQQAQILKELTLKISAAIN | failed
20 | MAFTESDVYNNEAFFKQYMKRRYRENSPNELIEKPAFFQLIGDVKGKKILDLGCGDAIFGKELLEKDCHSYTGIEGSELMYEKAKKQLENKNGIVHFLNLKDYTYPPATFDLVTSRLALHYIEHLPIIFQNVYETLKTNGTFTFSVQHPVITSSFESLQTSGKRTSWLVDDYFKTGKRVEPWIDQKVIKYHRTTEEYFTLLQQAGFTITNLKEATPNQTYFQSAEEYERRLRIPLFLLFSCRKLEHHHHHH | not failed
21 | MKPVKVGICGLGTVGGGTFNVLERNAEEIARRAGRGIEVAQIAARRPNPKCDTGATPITADIFDVACNPEIDVVVELIGGYTLAHELVLKAIENGKHVVTANKALIAVHGNEIFAKAREKGVIVAFEAAVAGGIPVIKAIREGLSANRINWLAGIINGTGNFILSEMREKGRTFPDVLAEAQALGYAEADPTFDVEGIDAAHKLTILASIAFGIPLQFDKAYTEGISKLTSADVNYADALGYRIKHLGVARRTESGFELRVHPTLIPSDRLIANVNGVMNAVMVNGDAVGSTLYYGAGAGMEPTASSVVADLVDVVRAMTSDPENRVPHLAFQPDALSDHPILPIEACESAYYLRIQAKDHPGVLAQVATILSERGINIESIMQKEAEEQDGLVPMILVTHRVIEQRINDAIAALEALEGVSGPVVRIRVEQL | not failed
